Experimental data taken from article PMC10631449 (Journal of medicinal chemistry, 2023).
Bridge positions count the residues as written; N and C are the ends. Square brackets hold non-standard residues; d marks the D form. Peptide text beside a SMILES is read from it. dPhe(4-I) = N[C@H](Cc1ccc(I)cc1)C(=O)O; 2Nal = N[C@@H](Cc1ccc2ccccc2c1)C(=O)O; hArg = N=C(N)NCCCC[C@H](N)C(=O)O; Cit = NC(=O)NCCC[C@H](N)C(=O)O; Nle = CCCC[C@H](N)C(=O)O; Orn = NCCC[C@H](N)C(=O)O; Dab = NCC[C@H](N)C(=O)O; Dap = NC[C@H](N)C(=O)O

Tests used:
mMC5R = mMC5R (Mus musculus, UniProt P41149); conditions: read-out: antagonist Ki mMC5R; cited from earlier work
MC1R = MC1R antagonist; cited from earlier work
[1] = target: mouse melanocortin 1 receptor (mouse) (UniProt Q01727)
[2] = target: mouse melanocortin 3 receptor (mouse) (UniProt P33033)
[3] = target: mouse melanocortin 4 receptor (mouse) (UniProt P56450)
[4] = target: mouse melanocortin 5 receptor (mouse) (UniProt P41149)
mMC3R = mMC3R (Mus musculus, UniProt P33033); experiment: AlphaScreen cAMP agonist assay, HEK293 cells stably expressing mMC3R; format: cell-based
[5] = Body weight after intrathecal; format: in vivo; conditions: t = 0, 24 and 48 h; 10 or 15 nmol/mouse IT
hMC1R = conditions: read-out: antagonist Ki hMC1R; competitive antagonist; cited from earlier work
mMC1R = mMC1R (Mus musculus, UniProt Q01727); conditions: cited from earlier work
K5-noggin mice = conditions: administered intracutaneously; cited from earlier work

Chain of mouse melanocortin 5 receptor (mouse) (P41149 whole entry): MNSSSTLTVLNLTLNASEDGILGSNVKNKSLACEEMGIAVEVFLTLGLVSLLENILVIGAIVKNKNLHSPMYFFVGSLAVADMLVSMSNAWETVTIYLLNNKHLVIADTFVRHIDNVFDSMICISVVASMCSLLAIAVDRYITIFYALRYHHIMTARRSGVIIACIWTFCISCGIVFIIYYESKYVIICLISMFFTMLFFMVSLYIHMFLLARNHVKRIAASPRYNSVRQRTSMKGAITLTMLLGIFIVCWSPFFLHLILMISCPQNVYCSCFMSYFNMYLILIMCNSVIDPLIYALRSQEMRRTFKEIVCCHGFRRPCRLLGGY
Chain of mouse melanocortin 4 receptor (mouse) (P56450 whole entry): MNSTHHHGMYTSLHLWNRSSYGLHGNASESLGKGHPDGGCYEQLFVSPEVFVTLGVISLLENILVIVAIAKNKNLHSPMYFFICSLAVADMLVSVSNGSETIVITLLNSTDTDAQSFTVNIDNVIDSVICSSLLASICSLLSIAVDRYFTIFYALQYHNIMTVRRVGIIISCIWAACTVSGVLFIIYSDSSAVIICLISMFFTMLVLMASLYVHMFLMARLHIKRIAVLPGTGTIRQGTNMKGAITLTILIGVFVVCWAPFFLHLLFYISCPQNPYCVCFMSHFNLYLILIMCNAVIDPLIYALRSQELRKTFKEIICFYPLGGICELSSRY
Chain of mouse melanocortin 3 receptor (mouse) (P33033 whole entry): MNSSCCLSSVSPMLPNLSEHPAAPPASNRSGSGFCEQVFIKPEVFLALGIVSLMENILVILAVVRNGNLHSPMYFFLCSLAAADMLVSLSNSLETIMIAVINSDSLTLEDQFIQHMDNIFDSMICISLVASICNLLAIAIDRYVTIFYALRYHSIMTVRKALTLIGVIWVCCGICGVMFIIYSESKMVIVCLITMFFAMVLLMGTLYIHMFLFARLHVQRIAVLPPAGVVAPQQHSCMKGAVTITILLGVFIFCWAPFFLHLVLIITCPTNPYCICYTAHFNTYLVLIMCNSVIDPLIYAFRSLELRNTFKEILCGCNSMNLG
Chain of mouse melanocortin 1 receptor (mouse) (Q01727 whole entry): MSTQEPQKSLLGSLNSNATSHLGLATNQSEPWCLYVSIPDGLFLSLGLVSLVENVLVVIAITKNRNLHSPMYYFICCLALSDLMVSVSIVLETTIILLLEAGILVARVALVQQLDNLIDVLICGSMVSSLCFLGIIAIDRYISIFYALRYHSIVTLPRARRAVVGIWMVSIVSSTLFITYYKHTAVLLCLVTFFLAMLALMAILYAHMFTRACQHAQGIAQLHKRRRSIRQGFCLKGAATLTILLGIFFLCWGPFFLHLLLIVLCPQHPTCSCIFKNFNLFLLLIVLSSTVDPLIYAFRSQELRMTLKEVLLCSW
Chain of mMC1R (Q01727 whole entry): as above
Chain of mMC5R (P41149 whole entry): as the sequence (P41149 whole entry) above
Chain of mMC3R (P33033 whole entry): as the sequence (P33033 whole entry) above

| Compound | agonist EC50, cAMP AlphaScreen on HEK293 cells expressing the receptor [2] [µM] | agonist EC50, cAMP AlphaScreen on HEK293 cells expressing the receptor [3] [µM] | agonist EC50, cAMP AlphaScreen on HEK293 cells expressing the receptor [4] [µM] | other results |
| --- | --- | --- | --- | --- |
| Ac-Nle-c[Asp-(1-Me)His-DNal(2’)-Arg-DNal(2’)-Lys]-NH2 | – | – | – | Ki (mMC5R): 0.063 µM |
| Ac-[Nle]DW[dF][Nle]WK-NH2 | – | – | – | pA2 in the frog skin assay (MC1R): 8.4 |
| Ac-[dPhe(4-I)]R[2Nal][dR]-NH2 | > 100 | > 100 | > 100 | agonist EC50, cAMP AlphaScreen on HEK293 cells expressing the receptor [1]: > 100 µM |
| CC(=O)N[C@H](Cc1ccc(I)cc1)C(=O)N[C@@H](CCCNC(=N)N)C(=O)N[C@@H](Cc1ccc2ccccc2c1)C(=O)N[C@@H](Cc1c[nH]cn1)C(N)=O [Peptide 12, Ac-DPhe(pI)-Arg-Nal(2’)-His-NH2] (Ac-[dPhe(4-I)]R[2Nal]H-NH2) | – | – | – | percent maximal stimulatory response (compared to NDP-MSH) observed at 100 μM, mMC3R (mMC3R): 35% @ 100 μM |
| CC(=O)N[C@H](Cc1ccc(I)cc1)C(=O)N[C@@H](CCCNC(=N)N)C(=O)N[C@@H](Cc1ccc2ccccc2c1)C(=O)N[C@@H](CCCN)C(N)=O [Peptide 14, Ac-DPhe(pI)-Arg-Nal(2’)-Orn-NH2] (Ac-[dPhe(4-I)]R[2Nal][Orn]-NH2) | – | – | – | body weights compared to vehicle [5]: not statistically significantly different |
| Ac-[dPhe(4-I)]R[2Nal][Orn]-NH2 | > 100 | > 100 | > 100 | – |
| Ac-[dPhe(4-I)]R[2Nal]K-NH2 | > 100 | > 100 | > 100 | – |
| Ac-[dPhe(4-I)]R[2Nal][hArg]-NH2 | > 100 | > 100 | > 100 | – |
| c[Gly-Cpg-DNal(2’)-Arg-Trp-Glu]-Val-Val-Gly-NH2 | – | – | – | Ki (hMC1R): 0.053 µM |
| Ac-[dPhe(4-I)][Cit][2Nal]R-NH2 | > 100 | > 100 | > 100 | – |
| Ac-[dPhe(4-I)]R[2Nal][Cit]-NH2 | > 100 | > 100 | > 100 | agonist EC50, cAMP AlphaScreen on HEK293 cells expressing the receptor [1]: > 100 µM |
| H-YERFFNAF[Dap]Y-NH2 (lactam 2-9) | – | – | – | pA2 mMC1R (mMC1R): 5.92; Ki (mMC1R; read-out: antagonist Ki mMC1R): 1.2 µM; coloration of K5-noggin mice (K5-noggin mice): restored wild-type coloration |
| Ac-[dPhe(4-I)]R[2Nal][Dab]-NH2 | > 100 | > 100 | > 100 | – |
| Ac-[dPhe(4-I)]H[2Nal]R-NH2 | > 100 | > 100 | > 100 | – |

Second part, led by results:

| agonist EC50, cAMP AlphaScreen on HEK293 cells expressing the receptor [2] [µM] | agonist EC50, cAMP AlphaScreen on HEK293 cells expressing the receptor [3] [µM] | agonist EC50, cAMP AlphaScreen on HEK293 cells expressing the receptor [4] [µM] | Compound | other results |
| --- | --- | --- | --- | --- |
| > 100 | > 100 | > 100 | Ac-[dPhe(4-I)]R[2Nal][dK]-NH2 | agonist EC50, cAMP AlphaScreen on HEK293 cells expressing the receptor [1]: > 100 µM |
| > 100 | > 100 | > 100 | Ac-[dPhe(4-I)]R[2Nal]E-NH2 | agonist EC50, cAMP AlphaScreen on HEK293 cells expressing the receptor [1]: > 100 µM |
| > 100 | > 100 | > 100 | Ac-[dPhe(4-I)]K[2Nal]R-NH2 | – |
| – | > 100 | > 100 | Ac-[dPhe(4-I)]R[2Nal]H-NH2 | – |
| – | – | > 100 | Ac-[dPhe(4-I)]R[2Nal]R-NH2 | – |
| > 100 | > 100 | > 100 | Ac-[dPhe(4-I)][dK][2Nal]R-NH2 | agonist EC50, cAMP AlphaScreen on HEK293 cells expressing the receptor [1]: > 100 µM |
| > 100 | > 100 | > 100 | Ac-[dPhe(4-I)]E[2Nal]R-NH2 | agonist EC50, cAMP AlphaScreen on HEK293 cells expressing the receptor [1]: > 100 µM |
| > 100 | > 100 | > 100 | Ac-[dPhe(4-I)]R[2Nal][Dap]-NH2 | – |
